The record followed here is patent US20260184774A1 (GENOME, published 2026).

Assay in all cases: ELISA, coated CNTN4 domain sample, anti-human IgG Fc-HRP
The target of experiment [1] is T1, Human CNTN4 domain sample D1-9 (human, UniProt Q8IWV2 19-899, limits assumed).
T1 construct: domain: Domain 1 to Domain 9
T1 sequence (looked up): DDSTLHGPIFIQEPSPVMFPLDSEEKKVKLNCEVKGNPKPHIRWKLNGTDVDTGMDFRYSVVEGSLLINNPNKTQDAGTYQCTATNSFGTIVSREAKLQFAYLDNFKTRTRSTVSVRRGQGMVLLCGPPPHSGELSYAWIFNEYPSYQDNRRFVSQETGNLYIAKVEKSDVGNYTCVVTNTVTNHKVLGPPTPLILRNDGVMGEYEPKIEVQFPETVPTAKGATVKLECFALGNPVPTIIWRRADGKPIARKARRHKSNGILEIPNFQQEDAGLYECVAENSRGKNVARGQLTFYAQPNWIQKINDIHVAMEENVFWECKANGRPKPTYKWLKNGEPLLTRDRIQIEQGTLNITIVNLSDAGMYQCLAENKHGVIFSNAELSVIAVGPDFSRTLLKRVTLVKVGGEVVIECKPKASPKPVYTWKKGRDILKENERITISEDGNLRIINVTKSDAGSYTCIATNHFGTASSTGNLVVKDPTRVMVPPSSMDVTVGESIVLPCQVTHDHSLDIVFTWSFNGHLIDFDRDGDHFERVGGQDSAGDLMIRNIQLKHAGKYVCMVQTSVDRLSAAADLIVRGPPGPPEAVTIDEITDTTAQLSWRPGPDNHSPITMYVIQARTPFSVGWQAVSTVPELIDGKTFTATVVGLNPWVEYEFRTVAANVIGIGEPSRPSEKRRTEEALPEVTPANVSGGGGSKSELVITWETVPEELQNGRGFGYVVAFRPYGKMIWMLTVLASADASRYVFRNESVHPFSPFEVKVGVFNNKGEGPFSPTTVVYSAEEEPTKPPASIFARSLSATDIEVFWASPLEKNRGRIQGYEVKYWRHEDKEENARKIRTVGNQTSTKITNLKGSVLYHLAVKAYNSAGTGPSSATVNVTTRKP
On the procedure: (§1) 50 μL of the diluted secondary antibody (Anti-human IgG Fc-HRP) was distributed to each well. The wells were sealed with sealing tape and incubated at 37° C. for 1 hour. The wells were washed tree times after Sealing tape was removed.
(§2) 50 μL of ABTs were distributed in each well. The wells were incubated at room temperature for 30 minutes. The absorbance was detected at 405 nm by using Microplate reader.

The target of experiment [2] is T2, Human CNTN4 domain sample D1-7 (human, UniProt Q8IWV2 19-697, limits assumed).
T2 construct: domain: Domain 1 to Domain 7
T2 sequence (looked up): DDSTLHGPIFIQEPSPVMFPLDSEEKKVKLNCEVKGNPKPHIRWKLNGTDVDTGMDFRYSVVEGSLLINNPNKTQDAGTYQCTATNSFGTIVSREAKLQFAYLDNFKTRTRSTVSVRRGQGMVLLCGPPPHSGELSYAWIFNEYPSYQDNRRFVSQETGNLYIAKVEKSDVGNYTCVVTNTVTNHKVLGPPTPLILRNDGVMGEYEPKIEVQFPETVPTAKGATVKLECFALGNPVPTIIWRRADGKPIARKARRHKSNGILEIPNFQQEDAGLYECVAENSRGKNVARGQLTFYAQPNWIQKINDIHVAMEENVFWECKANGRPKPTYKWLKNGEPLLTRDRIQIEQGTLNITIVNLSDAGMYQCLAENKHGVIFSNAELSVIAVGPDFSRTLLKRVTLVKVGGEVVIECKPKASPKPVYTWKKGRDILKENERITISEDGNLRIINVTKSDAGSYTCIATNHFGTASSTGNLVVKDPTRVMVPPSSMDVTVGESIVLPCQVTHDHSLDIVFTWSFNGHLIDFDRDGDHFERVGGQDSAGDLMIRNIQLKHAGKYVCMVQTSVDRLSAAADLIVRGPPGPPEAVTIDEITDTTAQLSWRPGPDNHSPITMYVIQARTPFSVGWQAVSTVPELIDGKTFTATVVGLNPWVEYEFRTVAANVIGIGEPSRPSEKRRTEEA
The method, then:
as §1, §2

In experiment [3] the target is T3, Human CNTN4 domain sample D1-5 (human, UniProt Q8IWV2 19-493, limits assumed).
T3 construct: domain: Domain 1 to Domain 5
T3 sequence (looked up): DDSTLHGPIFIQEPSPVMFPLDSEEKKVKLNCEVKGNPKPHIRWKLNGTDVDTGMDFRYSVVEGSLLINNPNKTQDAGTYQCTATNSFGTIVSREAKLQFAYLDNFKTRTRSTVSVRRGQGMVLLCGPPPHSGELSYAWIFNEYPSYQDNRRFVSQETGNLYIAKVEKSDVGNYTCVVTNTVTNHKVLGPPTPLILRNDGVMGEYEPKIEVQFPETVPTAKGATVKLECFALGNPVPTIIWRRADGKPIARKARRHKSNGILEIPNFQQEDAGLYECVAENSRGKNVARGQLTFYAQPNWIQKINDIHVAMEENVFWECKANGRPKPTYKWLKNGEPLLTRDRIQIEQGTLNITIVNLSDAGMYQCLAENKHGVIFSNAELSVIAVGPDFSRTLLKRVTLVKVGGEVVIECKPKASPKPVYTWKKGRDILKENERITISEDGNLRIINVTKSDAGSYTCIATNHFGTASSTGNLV
On the procedure:
as §1, §2

The target of experiment [4] is T4, Human CNTN4 domain sample D1-8 (human, UniProt Q8IWV2 19-799, limits assumed).
T4 construct: domain: Domain 1 to Domain 8
T4 sequence (looked up): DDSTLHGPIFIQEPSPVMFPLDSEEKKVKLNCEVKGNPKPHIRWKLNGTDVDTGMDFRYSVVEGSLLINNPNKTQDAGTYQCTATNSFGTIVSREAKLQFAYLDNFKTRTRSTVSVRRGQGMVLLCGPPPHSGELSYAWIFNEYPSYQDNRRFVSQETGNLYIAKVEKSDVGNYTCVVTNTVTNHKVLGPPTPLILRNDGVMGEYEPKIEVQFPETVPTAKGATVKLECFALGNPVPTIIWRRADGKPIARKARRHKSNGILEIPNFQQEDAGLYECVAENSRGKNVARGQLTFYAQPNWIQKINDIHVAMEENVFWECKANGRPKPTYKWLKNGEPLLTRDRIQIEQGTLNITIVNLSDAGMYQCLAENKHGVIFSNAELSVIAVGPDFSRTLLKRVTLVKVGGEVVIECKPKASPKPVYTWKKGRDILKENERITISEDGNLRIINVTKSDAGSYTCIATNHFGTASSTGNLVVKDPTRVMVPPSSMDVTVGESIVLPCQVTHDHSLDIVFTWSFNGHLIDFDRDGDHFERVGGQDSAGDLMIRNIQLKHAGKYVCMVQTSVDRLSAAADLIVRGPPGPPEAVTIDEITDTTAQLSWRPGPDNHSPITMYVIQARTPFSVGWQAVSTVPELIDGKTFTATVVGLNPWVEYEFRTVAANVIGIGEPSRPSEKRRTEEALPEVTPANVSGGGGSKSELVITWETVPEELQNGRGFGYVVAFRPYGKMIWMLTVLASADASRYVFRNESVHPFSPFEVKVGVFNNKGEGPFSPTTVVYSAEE
On the procedure:
as §1, §2

The target in experiment [5] is T5, Human CNTN4 domain sample D1-6 (human, UniProt Q8IWV2 19-586, limits assumed).
T5 construct: domain: Domain 1 to Domain 6
T5 sequence (looked up): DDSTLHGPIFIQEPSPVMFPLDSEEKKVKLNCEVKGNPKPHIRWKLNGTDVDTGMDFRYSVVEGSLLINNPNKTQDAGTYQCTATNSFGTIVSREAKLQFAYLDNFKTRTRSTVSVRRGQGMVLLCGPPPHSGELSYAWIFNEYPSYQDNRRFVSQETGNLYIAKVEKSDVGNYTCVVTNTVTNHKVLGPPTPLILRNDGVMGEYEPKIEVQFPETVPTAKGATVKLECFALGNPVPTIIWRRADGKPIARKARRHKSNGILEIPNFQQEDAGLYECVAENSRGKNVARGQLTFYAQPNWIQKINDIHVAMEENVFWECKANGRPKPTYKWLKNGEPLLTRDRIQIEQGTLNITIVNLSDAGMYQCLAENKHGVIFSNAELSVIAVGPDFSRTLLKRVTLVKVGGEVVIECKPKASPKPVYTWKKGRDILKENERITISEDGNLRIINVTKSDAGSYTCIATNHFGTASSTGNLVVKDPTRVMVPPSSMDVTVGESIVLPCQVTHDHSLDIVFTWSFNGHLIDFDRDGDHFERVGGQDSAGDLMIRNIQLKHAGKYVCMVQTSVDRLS
The method, then:
as §1, §2

Experiment [6] has as its target T6, Human CNTN4 domain sample D1-4 (human, UniProt Q8IWV2 19-400, limits assumed).
T6 construct: domain: Domain 1 to Domain 4
T6 sequence (looked up): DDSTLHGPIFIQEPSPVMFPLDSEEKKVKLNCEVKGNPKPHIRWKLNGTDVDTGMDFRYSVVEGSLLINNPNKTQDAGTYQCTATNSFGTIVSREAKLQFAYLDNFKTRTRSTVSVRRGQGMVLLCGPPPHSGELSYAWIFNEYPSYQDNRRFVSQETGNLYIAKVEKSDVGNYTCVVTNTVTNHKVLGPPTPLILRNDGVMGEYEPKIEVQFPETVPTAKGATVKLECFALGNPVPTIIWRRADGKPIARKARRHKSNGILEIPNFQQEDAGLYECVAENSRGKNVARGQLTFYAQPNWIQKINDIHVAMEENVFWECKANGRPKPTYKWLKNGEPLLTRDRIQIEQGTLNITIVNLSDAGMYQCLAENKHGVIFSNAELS
The method, then: as §1, §2

The target in experiment [7] is T7, Human CNTN4 domain sample Full (Domain 1 to Domain 10) (human, UniProt Q8IWV2 19-1000, limits assumed).
T7 construct: domain: Domain 1 to Domain 10 (Ig1 to Ig6 and FN1 to FN4)
T7 sequence (looked up): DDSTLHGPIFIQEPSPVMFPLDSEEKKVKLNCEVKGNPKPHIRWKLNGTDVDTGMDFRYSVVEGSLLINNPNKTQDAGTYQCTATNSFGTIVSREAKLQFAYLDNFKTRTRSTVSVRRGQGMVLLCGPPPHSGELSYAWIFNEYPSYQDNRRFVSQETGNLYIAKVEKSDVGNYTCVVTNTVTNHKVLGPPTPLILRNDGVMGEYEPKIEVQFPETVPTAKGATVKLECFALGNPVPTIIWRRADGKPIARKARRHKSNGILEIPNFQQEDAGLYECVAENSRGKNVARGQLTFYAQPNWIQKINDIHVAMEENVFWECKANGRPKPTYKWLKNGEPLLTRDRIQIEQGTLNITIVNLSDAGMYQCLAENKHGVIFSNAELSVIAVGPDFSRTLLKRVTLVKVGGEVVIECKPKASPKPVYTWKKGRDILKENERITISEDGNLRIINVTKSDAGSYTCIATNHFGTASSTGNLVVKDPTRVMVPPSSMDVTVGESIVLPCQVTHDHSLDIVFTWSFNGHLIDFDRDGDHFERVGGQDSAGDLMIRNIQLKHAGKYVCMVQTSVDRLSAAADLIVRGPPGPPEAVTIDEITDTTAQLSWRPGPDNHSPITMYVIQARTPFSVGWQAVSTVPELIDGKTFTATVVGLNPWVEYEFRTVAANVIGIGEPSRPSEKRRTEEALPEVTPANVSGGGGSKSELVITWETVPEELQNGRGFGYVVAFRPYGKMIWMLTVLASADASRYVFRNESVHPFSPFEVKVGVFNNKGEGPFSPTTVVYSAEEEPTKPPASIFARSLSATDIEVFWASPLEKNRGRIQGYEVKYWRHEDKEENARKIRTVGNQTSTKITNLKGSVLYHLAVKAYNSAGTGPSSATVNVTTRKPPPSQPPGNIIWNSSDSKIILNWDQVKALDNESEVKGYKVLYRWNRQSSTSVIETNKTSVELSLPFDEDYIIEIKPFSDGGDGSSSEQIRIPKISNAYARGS
On the procedure: as §1, §2

B1: Anti-CNTN4 chicken-human chimeric IgG4 antibody AB1 (antibody, V domains shown)
VH: AVTLDESEGGLQTPGGALSLVCKASGFTFSSFNMFWVRQAPGKGLEYVAEISGGGGSTWYAPAVKGRATISRDNGQSTVRLQLNNLRAEDTGTYYCAKSADTWSYGAATIDAWGHGTEVIVSS
VL: ALTQPSSVSANLGETVKITCSGSSGSYGWYQQKSPGSAPVTLIYDNTNRPSDIPSRFSGSGSGSTGTLTITGVRAEDEAVYYCGGYDGSTDVFGAGTTLTVL
notes: Chicken variable domains of scFv AB1 on human IgG4 constant regions; It was purified on Kappa select resin, so the light chain is kappa; also called anti-CNTN4 antibody AB1; Anti-CNTN4 129 chimeric IgG4 antibody
In the case of B1, the binding result is “binds” in experiment [1]; “no binding” in experiment [2]; “no binding” in experiment [3]; “binds” in experiment [4]; “no binding” in experiment [5]; “no binding” in experiment [6]. In addition, the binding result in experiment [7] was “binds”.
